Experimental findings from article PMC4479991 are described below.

The target in data set [1] is zif268 (EGR1 DNA-binding domain), cleaved (UniProt P08046). Description: solid-state nanopore. Conditions: EMSA: binding on ice, at least 1 h, native PAGE 8% (oligos) or 3.5% (1 kb), salt up to 1 M KCl; nanopore: 1 M KCl, 30 min incubation at 200:1 protein:DNA; pH …. (In general: A gel shift assay detects complexes by their altered migration in electrophoresis.)
The target in data set [2] is zif268_GST (uncleaved fusion) (UniProt P08046). Description: EMSA. Conditions: EMSA: binding on ice, at least 1 h, native PAGE 8% (oligos) or 3.5% (1 kb), salt up to 1 M KCl; nanopore: 1 M KCl, 30 min incubation at 200:1 protein:DNA; pH ….

Consider (-)DNA 960 bp, for which the binding signal (% ABA (specifically bound) events) in data set [1] stood at 4.3. In the case of “CGTCAGGGCAAGCCTTATTCACTGAATGAGCAGCTTTGTTACGTTGATTTGGGTAATGAATATCCGGTTCTTGTCAAGATTACTCTTGATGAAGGTCAGCCAGCCTATGCGCCTGGTCTGTACACCGTTCATCTGTCCTCTTTCAAAGTTGGTCAGTTCGGTTCCCTTATGATTGACCGTCTGCGCCTCGTTCCGGCTAAGTAACATGGAGCAGGTCGCGGATTTCGACACAATTTATCAGGCGATGATACAAATCTCCGTTGTACTTTGTTTCGCGCTTGGTATAATCGCTGGGGGTCAAAGATGAGTGTTTTAGTGTATTCTTTCGCCTCTTTCGTTTTAGGTTGGTGCCTTCGTAGTGGCATTACGTATTTTACCCGTTTAATGGAAACTTCCTCATGAAAAAGTCTTTAGTCCTCAAAGCCTCTGTAGCCGTTGCTACCCTCGTTCCGATGCTGTCTTTCGCTGCTGAGGGTGACGATCCCGCAAAAGCGGCCTTTAACTCCCTGCAAGCCTCAGCGACCGAATATATCGGTTATGCGTGGGCGATGGTTGTTGTCATTGTCGGCGCAACTATCGGTATCAAGCTGTTTAAGAAATTCACCTCGAAAGCAAGCTGATAAACCGATACAATTAAAGGCTCCTTTTGGAGCCTTTTTTTTTGGAGATTTTCAACGTGAAAAAATTATTATTCGCAATTCCTTTAGTTGTTCCTTTCTATTCTCACTCCGCTGAAACTGTTGAAAGTTGTTTAGCAAAACCCCATACAGAAAATTCATTTACTAACGTCTGGAAAGACGACAAAACTTTAGATCGTTACGCTAACTATGAGGGTTGTCTGTGGAATGCTACAGGCGTTGTAGTTTGTACTGGTGACGAAACTCAGTGTTACGGTACATGGGTTCCTATTGGGCTTGCTATCCCTGAAAATGAGGGTGGTGGCTCTGAGGGTGGCGGTTCTGAGGGTGGCGGTTCTGAGGGTGGCGGTACTAAACCTCCTGAGTACGGT (double strand) [(+)DNA 1009 bp]”, the binding signal (% ABA (specifically bound) events) in data set [1] was 11.5. In data set [2], the binding signal (% bound at 1:250 DNA:protein) was found to be 50.
